# Measurements taken from patent publication US8383117.
# Where no end group is shown, it is not given here. The star is where a group is joined. Biotin = O=C1N[C@H]2[C@H](CS[C@H]2CCCCC(=O)*)N1
# B1: VB1-008 monoclonal antibody (antibody, V domains shown)
# VH: QVQLQELGPRLVRPSQTLILTCTVSGGSVSGDEYYWSWLRQTPGKGLEWIGYMSYRGSSYYSPSLQSRVTIAVDRSKNEFSLKLTSVTAADAAVYFCARKYCGGDCRSGFDIWGRGTMVTVAS
# VL: YELTQPPSVSVSPGQKAFITCSGDNLGNKYVCWYQQKPGQSPVLVIYEDTKRPSGIPERFSASNSGNTATLTISGTQPIDEADYYCQAWDSRTEIFGTGTKVTVLS
# Columns and labels:
# [1] = biological target: VB1-008 monoclonal antibody; experiment: peptide in molar excess (20× to 200×) against 0.5 µM VB1-008, flow cytometry on MDA-MB-435S cells
# [2] = biological target: Peptide 2 (Biotin-…) (human); experiment: ELISA on peptide-coated plates, 75 µg/mL VB1-008; reference Peptide 3
competition efficiency [1],percent of the binding observed with Peptide 3 [2],Binder
60%,,Biotin-RIPATNMDSSH [Peptide 2 (Biotin-…)]
,50 to 60%,B1
96%,,Biotin-ATNMDSSHSIT [Peptide 3 (Biotin-…)]
